Results published in paper PMC10663500, “High-throughput analysis system of interaction kinetics for data-driven antibody design” (Scientific Reports, 2023).

Experiments:
[1] = biological target: T1, mouse programmed cell death protein 1 Fc fusion protein (mPD-1-Fc), mPD-1 C60S (aa 25-167) (Mus musculus, UniProt Q02242, stabilised); assay: SPR; Carterra LSA; Fab from the ammonium sulfate precipitate of the culture supernatant immobilised on a NiHC200M chip; hPD-1 (1-1024 nM) or mPD-1-Fc (4-1024 nM) as analyte, fourfold dilution series, no regeneration; HBS-EP pH 7.4, 25 °C; medians over the spots of a construct, KD = koff/kon; details: one partner purified
T1 construct: not cleaved; source: Expi293F, purified (Protein A, SEC; dimeric fraction); not shown: Fc (human), C-terminal, kept
Procedure, shortened: (§1)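 Fabs, ammonium sulfate-precipitated from Brevibacillus supernatants and redissolved in HBS-EP, were captured in duplicate on a NiHC200M chip on a Carterra LSA at 25 °C. Fourfold series of human PD-1 (1–1024 nM) or mouse PD-1-Fc (4–1024 nM) were run without regeneration, with association for 10 min and dissociation for 5 min. Rates were fitted with the kdka model, choosing the better of slow- or fast-dissociation settings, and unconfirmed binders were given kon 10^3 […] and koff 10^−2 s^−1. The dissociation constant KD is koff/kon based on per-construct medians.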

[2] = biological target: T2, human programmed cell death protein 1 (hPD-1) C93S (aa 24-167) (Homo sapiens, UniProt Q15116, C93S); assay: as above; details: one partner purified
T2 construct: made as a fusion with a TEV site and human Fc; the Fc was cut off with TEV protease; source: Expi293F, purified (Protein A, TEV cleavage of Fc, SEC; monomer fractions); not shown: Fc (human), C-terminal, cleaved
Procedure, shortened: as §1

T2 sequence (Q15116 24-167 C93S): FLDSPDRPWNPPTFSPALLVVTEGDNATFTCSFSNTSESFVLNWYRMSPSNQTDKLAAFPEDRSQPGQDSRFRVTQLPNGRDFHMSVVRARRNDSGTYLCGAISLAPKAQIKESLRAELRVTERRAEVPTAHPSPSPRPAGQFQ

Binder | Kd [1] [nM] | koff [1] [s⁻¹] | kon [1] [M⁻¹ s⁻¹] | Kd [2] [nM] | koff [2] [s⁻¹] | kon [2] [M⁻¹ s⁻¹]
toripalimab Fab H.V104Y (Fab, V domains shown, heavy chain of Sm3 with this change; numbers count from the chain's first residue; as the light chain of Sm3; source: Brevibacillus, culture supernatant (ammonium sulfate precipitate); not shown: 6xHis, C-terminal, kept; 6xHN, C-terminal, kept) VH: QGQLVQSGAEVKKPGASVKVSCKASGYTFTDYEMHWVRQAPIHGLEWIGVIESETGGTAYNQKFKGRVTITADKSTSTAYMELSSLRSEDTAVYYCAREGITTYATTYYWYFDVWGQGTTVTVSS VL: DVVMTQSPLSLPVTLGQPASISCRSSQSIVHSNGNTYLEWYLQKPGQSPQLLIYKVSNRFSGVPDRFSGSGSGTDFTLKISRVEAEDVGVYYCFQGSHVPLTFGQGTKLEIK | 96.2 | 0.00366 | 38000 | 1.17 | 1.81e-05 | 15500
toripalimab Fab H.A105Y (Fab, V domains shown, heavy chain of Sm3 with this change; numbers count from the chain's first residue; as the light chain of Sm3; source: Brevibacillus, culture supernatant (ammonium sulfate precipitate); not shown: 6xHis, C-terminal, kept; 6xHN, C-terminal, kept) VH: QGQLVQSGAEVKKPGASVKVSCKASGYTFTDYEMHWVRQAPIHGLEWIGVIESETGGTAYNQKFKGRVTITADKSTSTAYMELSSLRSEDTAVYYCAREGITTVYTTYYWYFDVWGQGTTVTVSS VL: DVVMTQSPLSLPVTLGQPASISCRSSQSIVHSNGNTYLEWYLQKPGQSPQLLIYKVSNRFSGVPDRFSGSGSGTDFTLKISRVEAEDVGVYYCFQGSHVPLTFGQGTKLEIK | 95.5 | 0.00349 | 36500 | < 0.492 | < 1e-05 | 20300
toripalimab Fab H.G66Y (Fab, V domains shown, heavy chain of Sm3 with this change; numbers count from the chain's first residue; as the light chain of Sm3; source: Brevibacillus, culture supernatant (ammonium sulfate precipitate); not shown: 6xHis, C-terminal, kept; 6xHN, C-terminal, kept) VH: QGQLVQSGAEVKKPGASVKVSCKASGYTFTDYEMHWVRQAPIHGLEWIGVIESETGGTAYNQKFKYRVTITADKSTSTAYMELSSLRSEDTAVYYCAREGITTVATTYYWYFDVWGQGTTVTVSS VL: DVVMTQSPLSLPVTLGQPASISCRSSQSIVHSNGNTYLEWYLQKPGQSPQLLIYKVSNRFSGVPDRFSGSGSGTDFTLKISRVEAEDVGVYYCFQGSHVPLTFGQGTKLEIK | 393 | 0.0111 | 28100 | < 0.85 | < 1e-05 | 11800
toripalimab Fab H.G100A (Fab, V domains shown, heavy chain of Sm3 with this change; numbers count from the chain's first residue; as the light chain of Sm3; source: Brevibacillus, culture supernatant (ammonium sulfate precipitate); not shown: 6xHis, C-terminal, kept; 6xHN, C-terminal, kept) VH: QGQLVQSGAEVKKPGASVKVSCKASGYTFTDYEMHWVRQAPIHGLEWIGVIESETGGTAYNQKFKGRVTITADKSTSTAYMELSSLRSEDTAVYYCAREAITTVATTYYWYFDVWGQGTTVTVSS VL: DVVMTQSPLSLPVTLGQPASISCRSSQSIVHSNGNTYLEWYLQKPGQSPQLLIYKVSNRFSGVPDRFSGSGSGTDFTLKISRVEAEDVGVYYCFQGSHVPLTFGQGTKLEIK | 464 | 0.0353 | 76100 | 0.593 | 1.42e-05 | 23900
toripalimab Fab H.T106A (Fab, V domains shown, heavy chain of Sm3 with this change; numbers count from the chain's first residue; as the light chain of Sm3; source: Brevibacillus, culture supernatant (ammonium sulfate precipitate); not shown: 6xHis, C-terminal, kept; 6xHN, C-terminal, kept) VH: QGQLVQSGAEVKKPGASVKVSCKASGYTFTDYEMHWVRQAPIHGLEWIGVIESETGGTAYNQKFKGRVTITADKSTSTAYMELSSLRSEDTAVYYCAREGITTVAATYYWYFDVWGQGTTVTVSS VL: DVVMTQSPLSLPVTLGQPASISCRSSQSIVHSNGNTYLEWYLQKPGQSPQLLIYKVSNRFSGVPDRFSGSGSGTDFTLKISRVEAEDVGVYYCFQGSHVPLTFGQGTKLEIK | 107 | 0.00423 | 39700 | 0.743 | 1.56e-05 | 21000
toripalimab Fab H.F64A (Fab, V domains shown, heavy chain of Sm3 with this change; numbers count from the chain's first residue; as the light chain of Sm3; source: Brevibacillus, culture supernatant (ammonium sulfate precipitate); not shown: 6xHis, C-terminal, kept; 6xHN, C-terminal, kept) VH: QGQLVQSGAEVKKPGASVKVSCKASGYTFTDYEMHWVRQAPIHGLEWIGVIESETGGTAYNQKAKGRVTITADKSTSTAYMELSSLRSEDTAVYYCAREGITTVATTYYWYFDVWGQGTTVTVSS VL: DVVMTQSPLSLPVTLGQPASISCRSSQSIVHSNGNTYLEWYLQKPGQSPQLLIYKVSNRFSGVPDRFSGSGSGTDFTLKISRVEAEDVGVYYCFQGSHVPLTFGQGTKLEIK | 59.7 | 0.00193 | 32400 | < 1.4 | < 1e-05 | 7170
toripalimab Fab H.K65Y (Fab, V domains shown, heavy chain of Sm3 with this change; numbers count from the chain's first residue; as the light chain of Sm3; source: Brevibacillus, culture supernatant (ammonium sulfate precipitate); not shown: 6xHis, C-terminal, kept; 6xHN, C-terminal, kept) VH: QGQLVQSGAEVKKPGASVKVSCKASGYTFTDYEMHWVRQAPIHGLEWIGVIESETGGTAYNQKFYGRVTITADKSTSTAYMELSSLRSEDTAVYYCAREGITTVATTYYWYFDVWGQGTTVTVSS VL: DVVMTQSPLSLPVTLGQPASISCRSSQSIVHSNGNTYLEWYLQKPGQSPQLLIYKVSNRFSGVPDRFSGSGSGTDFTLKISRVEAEDVGVYYCFQGSHVPLTFGQGTKLEIK | 299 | 0.012 | 40300 | 1.14 | 1.86e-05 | 16300
toripalimab Fab H.K63Y (Fab, V domains shown, heavy chain of Sm3 with this change; numbers count from the chain's first residue; as the light chain of Sm3; source: Brevibacillus, culture supernatant (ammonium sulfate precipitate); not shown: 6xHis, C-terminal, kept; 6xHN, C-terminal, kept) VH: QGQLVQSGAEVKKPGASVKVSCKASGYTFTDYEMHWVRQAPIHGLEWIGVIESETGGTAYNQYFKGRVTITADKSTSTAYMELSSLRSEDTAVYYCAREGITTVATTYYWYFDVWGQGTTVTVSS VL: DVVMTQSPLSLPVTLGQPASISCRSSQSIVHSNGNTYLEWYLQKPGQSPQLLIYKVSNRFSGVPDRFSGSGSGTDFTLKISRVEAEDVGVYYCFQGSHVPLTFGQGTKLEIK | 75.7 | 0.00458 | 60400 | < 0.226 | < 1e-05 | 44300
